9 molecules from US20140271457A1 (AbbVie / Abbott, published 2014) can be followed below.

What all share (assay): cell-based or functional assay
The target of assay [1] is Recombinant Human TNF-α/TNFSF1A (human, UniProt P01375 77-233).
In a further assay the target is Recombinant Human β-NGF (human, UniProt P01138 122-241).
In the next assay the target is Recombinant Human IL-13 (human, UniProt P35225 35-146, limits assumed).
Recombinant Human IL-13, sequence (P35225 35-146 limits assumed): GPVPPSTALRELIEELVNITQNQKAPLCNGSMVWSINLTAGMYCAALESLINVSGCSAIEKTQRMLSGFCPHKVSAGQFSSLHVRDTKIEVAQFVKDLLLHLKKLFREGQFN

Recombinant Human β-NGF, sequence (P01138 122-241 limits assumed): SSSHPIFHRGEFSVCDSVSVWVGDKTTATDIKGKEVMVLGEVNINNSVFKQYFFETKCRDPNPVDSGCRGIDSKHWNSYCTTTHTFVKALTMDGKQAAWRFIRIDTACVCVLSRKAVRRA
Recombinant Human TNF-α/TNFSF1A, sequence (P01375 77-233 limits assumed): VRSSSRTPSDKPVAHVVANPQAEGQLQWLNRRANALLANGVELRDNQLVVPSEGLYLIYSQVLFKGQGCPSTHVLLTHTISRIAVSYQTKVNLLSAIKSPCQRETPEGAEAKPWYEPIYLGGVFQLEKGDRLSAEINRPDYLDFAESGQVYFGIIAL

B1: DVD2718 (bispecific antibody, IgG1)
VH: EVQLVESGGGLVQPGGSLRLSCAASGFSLTNNNVNWVRQAPGKGLEWVGGVWAGGATDYNSALKSRFTISRDNSKNTAYLQMNSLRAEDTAVYYCARDGGYSSSTLYAMDAWGQGTLVTVSSGGGGSGGGGSEVQLVESGGGLVQPGGSLRLSCAASGFTFSNYGVTWVRQAPGKGLEWVSMIWADGSTHYASSVKGRFTISRDNSKNTLYLQMNSLRAEDTAVYYCAREWQHGPVAYWGQGTLVTVSS
VL: DIQMTQSPSSLSASVGDRVTITCRASEDIYNALAWYQQKPGKAPKLLIYNTDTLHTGVPSRFSGSGSGTDYTLTISSLQPEDFATYFCQHYFHYPRTFGQGTKVEIKRGGSGGGGSGDIQMTQSPSSLSASVGDRVTITCRASQLVSSAVAWYQQKPGKAPKLLIYWASARHTGVPSRFSGSGSGTDFTLTISSLQPEDFATYYCQQHYKTPFTFGQGTKLEIKR
For B1, the “C-Terminal VD huTNFα Neutralization Assay IC50” value in assay [1] stood at 0.249 nM. For the same molecule, the “N-Terminal VD NGF Neutralization Assay IC50” value in the assay with Recombinant Human β-NGF was 0.008 nM.

B2: DVD2719 (bispecific antibody, IgG1)
VH: EVQLVESGGGLVQPGGSLRLSCAASGFSLTNNNVNWVRQAPGKGLEWVGGVWAGGATDYNSALKSRFTISRDNSKNTAYLQMNSLRAEDTAVYYCARDGGYSSSTLYAMDAWGQGTLVTVSSASTKGPEVQLVESGGGLVQPGGSLRLSCAASGFTFSNYGVTWVRQAPGKGLEWVSMIWADGSTHYASSVKGRFTISRDNSKNTLYLQMNSLRAEDTAVYYCAREWQHGPVAYWGQGTLVTVSS
VL: DIQMTQSPSSLSASVGDRVTITCRASEDIYNALAWYQQKPGKAPKLLIYNTDTLHTGVPSRFSGSGSGTDYTLTISSLQPEDFATYFCQHYFHYPRTFGQGTKVEIKRTVAAPDIQMTQSPSSLSASVGDRVTITCRASQLVSSAVAWYQQKPGKAPKLLIYWASARHTGVPSRFSGSGSGTDFTLTISSLQPEDFATYYCQQHYKTPFTFGQGTKLEIKR
B2: in assay [1], the “C-Terminal VD huTNFα Neutralization Assay IC50” value came out at 0.126 nM. In addition, the “N-Terminal VD NGF Neutralization Assay IC50” value in the assay with Recombinant Human β-NGF was 0.019 nM.

B3: DVD2689 (bispecific antibody, human IgG1, kappa)
heavy: not shown
light: DIQMTQSPSSLSASVGDRVTISCRASQDIRNYLNWYQQKPGKAPKLLIFYTSKLHSGVPSRFSGSGSGTDYTLTISSLQPEDIATYYCQQGLTPPLTFGGGTKVEIKRTVAAPDIQMTQSPSSLSASVGDRVTITCRASQLVSSAVAWYQQKPGKAPKLLIYWASARHTGVPSRFSGSGSGTDFTLTISSLQPEDFATYYCQQHYKTPFTFGQGTKLEIKRTVAAPSVFIFPPSDEQLKSGTASVVCLLNNFYPREAKVQWKVDNALQSGNSQESVTEQDSKDSTYSLSSTLTLSKADYEKHKVYACEVTHQGLSSPVTKSFNRGEC
On to B3, for which the “IL-13 Neutralization Assay IC50” value with Recombinant Human IL-13 came out at 0.147 nM.

B4: DVD2713 (bispecific antibody, IgG1)
VH: EVQLVESGGGLVQPGGSLRLSCAASGFTFSNYGVTWVRQAPGKGLEWVSMIWADGSTHYASSVKGRFTISRDNSKNTLYLQMNSLRAEDTAVYYCAREWQHGPVAYWGQGTLVTVSSGGGGSGGGGSEVQLVESGGGLVQPGGSLRLSCAASGFSLTNNNVNWVRQAPGKGLEWVGGVWAGGATDYNSALKSRFTISRDNSKNTAYLQMNSLRAEDTAVYYCARDGGYSSSTLYAMDAWGQGTLVTVSS
VL: DIQMTQSPSSLSASVGDRVTITCRASQLVSSAVAWYQQKPGKAPKLLIYWASARHTGVPSRFSGSGSGTDFTLTISSLQPEDFATYYCQQHYKTPFTFGQGTKLEIKRGGSGGGGSGDIQMTQSPSSLSASVGDRVTITCRASEDIYNALAWYQQKPGKAPKLLIYNTDTLHTGVPSRFSGSGSGTDYTLTISSLQPEDFATYFCQHYFHYPRTFGQGTKVEIKR
Regarding B4, the “N-Terminal VD huTNFα Neutralization Assay IC50” value in assay [1] was 0.006 nM. Besides, the “C-Terminal VD NGF Neutralization Assay IC50” value with Recombinant Human β-NGF is 2.9 nM.

B5: AB267 (antibody, V domains shown)
VH: EVQLVESGGGLVQPGGSLRLSCAASGFSLTNNNVNWVRQAPGKGLEWVGGVWAGGATDYNSALKSRFTISRDNSKNTAYLQMNSLRAEDTAVYYCARDGGYSSSTLYAMDAWGQGTLVTVSS
VL: DIQMTQSPSSLSASVGDRVTITCRASEDIYNALAWYQQKPGKAPKLLIYNTDTLHTGVPSRFSGSGSGTDYTLTISSLQPEDFATYFCQHYFHYPRTFGQGTKVEIKR
On to B5, for which the “NGF Neutralization Assay IC50” value with Recombinant Human β-NGF was 0.007 nM.

B6: DVD3047 (bispecific antibody, IgG1)
VH: EVQLVESGGGLVQPGGSLRLSCAASGFSLTNNNVNWVRQAPGKGLEWVGGVWAGGATDYNSALKSRFTISRDNSKNTAYLQMNSLRAEDTAVYYCARDGGYSSSTLYAMDAWGQGTLVTVSSASTKGPSVFPLAPEVQLVQSGAEVKKPGASVKVSCKASGYTFNNYGIIWVRQAPGQGLEWMGWINTYTGKPTYAQKFQGRVTMTTDTSTSTAYMELSSLRSEDTAVYYCARKLFNTVAVTDNAMDYWGQGTTVTVSS
VL: DIQMTQSPSSLSASVGDRVTITCRASEDIYNALAWYQQKPGKAPKLLIYNTDTLHTGVPSRFSGSGSGTDYTLTISSLQPEDFATYFCQHYFHYPRTFGQGTKVEIKRTVAAPDIQMTQSPSSLSASVGDRVTITCRASQDIENYLNWYQQKPGKAPKLLIYYTSRLQSGVPSRFSGSGSGTDFTLTISSLQPEDFATYFCQQGNTQPPTFGQGTKLEIKR
Turning to B6, the “N-Terminal VD NGF Neutralization Assay IC50” value with Recombinant Human β-NGF was over 10 nM.

B7: DVD2714 (bispecific antibody, IgG1)
VH: EVQLVESGGGLVQPGGSLRLSCAASGFTFSNYGVTWVRQAPGKGLEWVSMIWADGSTHYASSVKGRFTISRDNSKNTLYLQMNSLRAEDTAVYYCAREWQHGPVAYWGQGTLVTVSSASTKGPEVQLVESGGGLVQPGGSLRLSCAASGFSLTNNNVNWVRQAPGKGLEWVGGVWAGGATDYNSALKSRFTISRDNSKNTAYLQMNSLRAEDTAVYYCARDGGYSSSTLYAMDAWGQGTLVTVSS
VL: DIQMTQSPSSLSASVGDRVTITCRASQLVSSAVAWYQQKPGKAPKLLIYWASARHTGVPSRFSGSGSGTDFTLTISSLQPEDFATYYCQQHYKTPFTFGQGTKLEIKRTVAAPDIQMTQSPSSLSASVGDRVTITCRASEDIYNALAWYQQKPGKAPKLLIYNTDTLHTGVPSRFSGSGSGTDYTLTISSLQPEDFATYFCQHYFHYPRTFGQGTKVEIKR
Regarding B7, the “N-Terminal VD huTNFα Neutralization Assay IC50” value in assay [1] is 0.008 nM. For the same molecule, the “C-Terminal VD NGF Neutralization Assay IC50” value in the assay with Recombinant Human β-NGF was determined as 6.85 nM.

B8: DVD2716 (bispecific antibody, IgG1)
VH: B7 VH
VL: DIQMTQSPSSLSASVGDRVTITCRASQLVSSAVAWYQQKPGKAPKLLIYWASARHTGVPSRFSGSGSGTDFTLTISSLQPEDFATYYCQQHYKTPFTFGQGTKLEIKRTVAAPSVFIFPPDIQMTQSPSSLSASVGDRVTITCRASEDIYNALAWYQQKPGKAPKLLIYNTDTLHTGVPSRFSGSGSGTDYTLTISSLQPEDFATYFCQHYFHYPRTFGQGTKVEIKR
B8: in assay [1], the “N-Terminal VD huTNFα Neutralization Assay IC50” value turned out to be 0.014 nM. Further, in the assay with Recombinant Human β-NGF, the “C-Terminal VD NGF Neutralization Assay IC50” value worked out at 0.624 nM.

B9: DVD2717 (bispecific antibody, IgG1)
VH: EVQLVESGGGLVQPGGSLRLSCAASGFTFSNYGVTWVRQAPGKGLEWVSMIWADGSTHYASSVKGRFTISRDNSKNTLYLQMNSLRAEDTAVYYCAREWQHGPVAYWGQGTLVTVSSASTKGPSVFPLAPEVQLVESGGGLVQPGGSLRLSCAASGFSLTNNNVNWVRQAPGKGLEWVGGVWAGGATDYNSALKSRFTISRDNSKNTAYLQMNSLRAEDTAVYYCARDGGYSSSTLYAMDAWGQGTLVTVSS
VL: B7 VL
Consider B9, for which, in assay [1], the “N-Terminal VD huTNFα Neutralization Assay IC50” value is 0.278 nM. In addition, in the assay with Recombinant Human β-NGF, the “C-Terminal VD NGF Neutralization Assay IC50” value came out at 0.936 nM.
